{"source": "paper PMC2680334", "about": "“Polo-Like Kinase 1 Directs Assembly of the HsCyk-4 RhoGAP/Ect2 RhoGEF Complex to Initiate Cleavage Furrow Formation” (PLoS Biology, 2009)", "molecules": {"B1": {"name": "CBD–HsCyk-4-Nt-4D (1–288), not incubated with Plk1, immobilised (domain or fragment, UniProt Q9H0H5 1-288, looked up)", "chain": "MDTMMLNVRNLFEQLVRRVEILSEGNEVQFIQLAKDFEDFRKKWQRTDHELGKYKDLLMKAETERSALDVKLKHARNQVDVEIKRRQRAEADCEKLERQIQLIREMLMCDTSGSIQLSEEQKSALAFLNRGQPSSSNAGNKRLSTIDEDGSILSDIDFDKTDEDLDWDSDLVKTFKLKKREKRRSTSRQFVDGPPGPVKKTRSIGSAVDQGNESIVAKTTVTVPNDGGPIEAVSTIETVPYWTRSRRKTGTLQPWNSDSTLNSRQLEPRTETDSVGTPQSNGGMRLHD", "notes": "HsCyk-4/MgcRacGAP N terminus, residues 1–288, four serines changed to aspartate; also called HsCyk-4-4D; source: E. coli BL21 (DE3) RIL, purified on chitin beads, kept on the beads"}, "B2": {"name": "Ect2-BRCT (1–421), soluble, CBD removed by TEV (domain or fragment, UniProt Q9H8V3-4 1-421, looked up)", "chain": "MAENSVLTSTTGRTSLADSSIFDSKVTEISKENLLIGSTSYVEEEMPQIETRVILVQEAGKQEELIKALKDIKVGFVKMESVEEFEGLDSPEFENVFVVTDFQDSVFNDLYKADCRVIGPPVVLNCSQKGEPLPFSCRPLYCTSMMNLVLCFTGFRKKEELVRLVTLVHHMGGVIRKDFNSKVTHLVANCTQGEKFRVAVSLGTPIMKPEWIYKAWERRNEQDFYAAVDDFRNEFKVPPFQDCILSFLGFSDEEKTNMEEMTEMQGGKYLPLGDERCTHLVVEENIVKDLPFEPSKKLYVVKQEWFWGSIQMDARAGETMYLYEKANTPELKKSVSMLSLNTPNSNRKRRRLKETLAQLSRETDVSPFPPRKRPSAEHSLSIGSLLDISNTPESSINYGDTPKSCTKSSKSSTPVPSKQSA", "notes": "Ect2 N terminus with the BRCT repeats, residues 1–421; the printed UniProt entry is the human protein; also called soluble Ect2-BRCT; source: E. coli BL21 (DE3) RIL, purified on chitin beads, eluted by TEV cleavage"}}, "key": {"[1]": {"biological_target": "Ect2 Ect2-BRCT, 1-421 (UniProt Q9H8V3)", "experiment": "CBD bead pull-down, Coomassie", "settings": "reference: 4A without Plk1"}, "[2]": {"biological_target": "Ect2 Ect2-BRCT, 1-421 (UniProt Q9H8V3)", "experiment": "CBD bead pull-down, Coomassie or blot", "settings": "reference: HsCyk-4-Nt without Plk1; sites S149,S157,S164,S170"}, "[3]": {"biological_target": "B2", "experiment": "pull-down; 100 nM CBD fusion on chitin beads, with or without 50 nM Plk1-T210D 1–306 and ATP (60 min, 30°C), washed; soluble partner added at equimolar amounts; 20 mM HEPES pH 7.2, 150 mM NaCl, 5 mM MgCl2, 1 mM DTT, 0.1% Triton X-100; 90 min at 4°C; Coomassie staining or Western blot", "settings": "both partners purified"}, "[4]": {"biological_target": "T1, CBD–HsCyk-4-Nt-4D (1–288), incubated with Plk1, immobilised (UniProt Q9H0H5 1-288, Ser149 to Asp | Ser157 to Asp | Ser164 to Asp | Ser170 to Asp, incubated with Plk1-T210D (1–306) and ATP; remaining phosphorylation sites not stated)", "T1 construct": "HsCyk-4/MgcRacGAP N terminus, residues 1–288, four serines changed to aspartate; also called HsCyk-4-4D (with Plk1); source: E. coli BL21 (DE3) RIL, purified on chitin beads, incubated on the beads with Plk1-T210D 1–306 and ATP", "T1 sequence (looked up)": "B1 chain", "experiment": "pull-down; 100 nM CBD fusion on chitin beads, with or without 50 nM Plk1-T210D 1–306 and ATP (60 min, 30°C), washed; soluble partner added at equimolar amounts; 20 mM HEPES pH 7.2, 150 mM NaCl, 5 mM MgCl2, 1 mM DTT, 0.1% Triton X-100; 90 min at 4°C; Coomassie staining or Western blot", "settings": "both partners purified"}, "[5]": {"biological_target": "T2, CBD–HsCyk-4-Nt-4A (1–288), incubated with Plk1, immobilised (UniProt Q9H0H5 1-288, Ser149 to Ala | Ser157 to Ala | Ser164 to Ala | Ser170 to Ala, incubated with Plk1-T210D (1–306) and ATP; remaining phosphorylation sites not stated)", "T2 construct": "HsCyk-4/MgcRacGAP N terminus, residues 1–288, four serines changed to alanine; also called HsCyk-4-4A; source: E. coli BL21 (DE3) RIL, purified on chitin beads, incubated on the beads with Plk1-T210D 1–306 and ATP", "T2 sequence (looked up)": "B1 chain with D149A, D157A, D164A, D170A", "experiment": "pull-down; 100 nM CBD fusion on chitin beads, with or without 50 nM Plk1-T210D 1–306 and ATP (60 min, 30°C), washed; soluble partner added at equimolar amounts; 20 mM HEPES pH 7.2, 150 mM NaCl, 5 mM MgCl2, 1 mM DTT, 0.1% Triton X-100; 90 min at 4°C; Coomassie staining or Western blot", "settings": "both partners purified"}, "[6]": {"biological_target": "T3, CBD–HsCyk-4-Nt (1–288) phosphorylated by Plk1, immobilised (UniProt Q9H0H5 1-288, phosphorylated in vitro by Plk1-T210D (1–306); Ser149, Ser157, Ser164 and Ser170 named as the sites)", "T3 construct": "HsCyk-4/MgcRacGAP N terminus, residues 1–288; the printed UniProt entry is the human protein; also called HsCyk-4-wt (with Plk1); source: E. coli BL21 (DE3) RIL, purified on chitin beads, phosphorylated on the beads with Plk1-T210D 1–306", "T3 sequence (looked up)": "B1 chain with D149S, D157S, D164S, D170S", "experiment": "pull-down; 100 nM CBD fusion on chitin beads, with or without 50 nM Plk1-T210D 1–306 and ATP (60 min, 30°C), washed; soluble partner added at equimolar amounts; 20 mM HEPES pH 7.2, 150 mM NaCl, 5 mM MgCl2, 1 mM DTT, 0.1% Triton X-100; 90 min at 4°C; Coomassie staining or Western blot", "settings": "both partners purified"}}, "note": "Where a chain is given by its changes, count along the chain named."}
{"molecule": "HsCyk-4/MgcRacGAP HsCyk-4-Nt, 1-288 (from UniProt Q9H0H5) 4A treated with Plk1 and ATP", "values": [{"measurement": "fold change", "setting": "[1]", "value": 3.1, "unit": "fold"}]}
{"molecule": "HsCyk-4/MgcRacGAP HsCyk-4-Nt, 1-288 (from UniProt Q9H0H5) HsCyk-4-Nt treated with Plk1-T210D kinase domain and ATP", "values": [{"measurement": "fold change", "setting": "[2]", "value": 20.2, "unit": "fold"}]}
{"molecule": "B1", "values": [{"measurement": "binding result", "setting": "[3]", "value": "binds"}]}
{"molecule": "B2", "values": [{"measurement": "fold stimulation of binding upon Plk1 phosphorylation (against the protein without Plk1)", "setting": "[4]", "value": 1.7, "unit": "fold"}, {"measurement": "fold stimulation of binding upon Plk1 phosphorylation (against the protein without Plk1)", "setting": "[5]", "value": 3.1, "unit": "fold"}, {"measurement": "fold stimulation of binding upon Plk1 phosphorylation (against the protein without Plk1)", "setting": "[6]", "value": 20.2, "unit": "fold"}]}
